For experiment [1], the target named is T1, ALK1-fragment crystallizable region (Fc), wild type ALK1 ectodomain (human, UniProt P37023 22-118).
T1 construct: also called ALK1-Fc; ALK1^ecto-Fc; not shown: Fc tag
As to the kind of experiment: ApoB100 peptide array, fluorescence. As for the experimental part:
FIG. 6 depicts mapping of ALK1 binding to ApoB100- In order to identify binding sites that mediate the interaction of ALK1 with the core LDL protein, Apo B100, peptide mapping experiments were performed. 4,563 different peptides (15 AA in length overlapped by 14AA) derived from the human ApoB100 sequence were arrayed and incubated with a control-Fc, and ALK1-Fc and binding events measurement by fluorescence. […] The AA sequence of binding for site 1 is SEQ ID NO: 4 QDDCTGDED, site 4 is SEQ ID NO: 5 […] and site 5 is SEQ ID NO: 6 HRDFSAEYEED.

The target of experiment [2] is T2, low density lipoprotein (LDL) (UniProt P04114 28-4563).
T2 construct: Lipoprotein particle, not a pure protein; also called DiI-LDL (fluorescently labeled)
T2 sequence (P04114 28-4563 limits assumed): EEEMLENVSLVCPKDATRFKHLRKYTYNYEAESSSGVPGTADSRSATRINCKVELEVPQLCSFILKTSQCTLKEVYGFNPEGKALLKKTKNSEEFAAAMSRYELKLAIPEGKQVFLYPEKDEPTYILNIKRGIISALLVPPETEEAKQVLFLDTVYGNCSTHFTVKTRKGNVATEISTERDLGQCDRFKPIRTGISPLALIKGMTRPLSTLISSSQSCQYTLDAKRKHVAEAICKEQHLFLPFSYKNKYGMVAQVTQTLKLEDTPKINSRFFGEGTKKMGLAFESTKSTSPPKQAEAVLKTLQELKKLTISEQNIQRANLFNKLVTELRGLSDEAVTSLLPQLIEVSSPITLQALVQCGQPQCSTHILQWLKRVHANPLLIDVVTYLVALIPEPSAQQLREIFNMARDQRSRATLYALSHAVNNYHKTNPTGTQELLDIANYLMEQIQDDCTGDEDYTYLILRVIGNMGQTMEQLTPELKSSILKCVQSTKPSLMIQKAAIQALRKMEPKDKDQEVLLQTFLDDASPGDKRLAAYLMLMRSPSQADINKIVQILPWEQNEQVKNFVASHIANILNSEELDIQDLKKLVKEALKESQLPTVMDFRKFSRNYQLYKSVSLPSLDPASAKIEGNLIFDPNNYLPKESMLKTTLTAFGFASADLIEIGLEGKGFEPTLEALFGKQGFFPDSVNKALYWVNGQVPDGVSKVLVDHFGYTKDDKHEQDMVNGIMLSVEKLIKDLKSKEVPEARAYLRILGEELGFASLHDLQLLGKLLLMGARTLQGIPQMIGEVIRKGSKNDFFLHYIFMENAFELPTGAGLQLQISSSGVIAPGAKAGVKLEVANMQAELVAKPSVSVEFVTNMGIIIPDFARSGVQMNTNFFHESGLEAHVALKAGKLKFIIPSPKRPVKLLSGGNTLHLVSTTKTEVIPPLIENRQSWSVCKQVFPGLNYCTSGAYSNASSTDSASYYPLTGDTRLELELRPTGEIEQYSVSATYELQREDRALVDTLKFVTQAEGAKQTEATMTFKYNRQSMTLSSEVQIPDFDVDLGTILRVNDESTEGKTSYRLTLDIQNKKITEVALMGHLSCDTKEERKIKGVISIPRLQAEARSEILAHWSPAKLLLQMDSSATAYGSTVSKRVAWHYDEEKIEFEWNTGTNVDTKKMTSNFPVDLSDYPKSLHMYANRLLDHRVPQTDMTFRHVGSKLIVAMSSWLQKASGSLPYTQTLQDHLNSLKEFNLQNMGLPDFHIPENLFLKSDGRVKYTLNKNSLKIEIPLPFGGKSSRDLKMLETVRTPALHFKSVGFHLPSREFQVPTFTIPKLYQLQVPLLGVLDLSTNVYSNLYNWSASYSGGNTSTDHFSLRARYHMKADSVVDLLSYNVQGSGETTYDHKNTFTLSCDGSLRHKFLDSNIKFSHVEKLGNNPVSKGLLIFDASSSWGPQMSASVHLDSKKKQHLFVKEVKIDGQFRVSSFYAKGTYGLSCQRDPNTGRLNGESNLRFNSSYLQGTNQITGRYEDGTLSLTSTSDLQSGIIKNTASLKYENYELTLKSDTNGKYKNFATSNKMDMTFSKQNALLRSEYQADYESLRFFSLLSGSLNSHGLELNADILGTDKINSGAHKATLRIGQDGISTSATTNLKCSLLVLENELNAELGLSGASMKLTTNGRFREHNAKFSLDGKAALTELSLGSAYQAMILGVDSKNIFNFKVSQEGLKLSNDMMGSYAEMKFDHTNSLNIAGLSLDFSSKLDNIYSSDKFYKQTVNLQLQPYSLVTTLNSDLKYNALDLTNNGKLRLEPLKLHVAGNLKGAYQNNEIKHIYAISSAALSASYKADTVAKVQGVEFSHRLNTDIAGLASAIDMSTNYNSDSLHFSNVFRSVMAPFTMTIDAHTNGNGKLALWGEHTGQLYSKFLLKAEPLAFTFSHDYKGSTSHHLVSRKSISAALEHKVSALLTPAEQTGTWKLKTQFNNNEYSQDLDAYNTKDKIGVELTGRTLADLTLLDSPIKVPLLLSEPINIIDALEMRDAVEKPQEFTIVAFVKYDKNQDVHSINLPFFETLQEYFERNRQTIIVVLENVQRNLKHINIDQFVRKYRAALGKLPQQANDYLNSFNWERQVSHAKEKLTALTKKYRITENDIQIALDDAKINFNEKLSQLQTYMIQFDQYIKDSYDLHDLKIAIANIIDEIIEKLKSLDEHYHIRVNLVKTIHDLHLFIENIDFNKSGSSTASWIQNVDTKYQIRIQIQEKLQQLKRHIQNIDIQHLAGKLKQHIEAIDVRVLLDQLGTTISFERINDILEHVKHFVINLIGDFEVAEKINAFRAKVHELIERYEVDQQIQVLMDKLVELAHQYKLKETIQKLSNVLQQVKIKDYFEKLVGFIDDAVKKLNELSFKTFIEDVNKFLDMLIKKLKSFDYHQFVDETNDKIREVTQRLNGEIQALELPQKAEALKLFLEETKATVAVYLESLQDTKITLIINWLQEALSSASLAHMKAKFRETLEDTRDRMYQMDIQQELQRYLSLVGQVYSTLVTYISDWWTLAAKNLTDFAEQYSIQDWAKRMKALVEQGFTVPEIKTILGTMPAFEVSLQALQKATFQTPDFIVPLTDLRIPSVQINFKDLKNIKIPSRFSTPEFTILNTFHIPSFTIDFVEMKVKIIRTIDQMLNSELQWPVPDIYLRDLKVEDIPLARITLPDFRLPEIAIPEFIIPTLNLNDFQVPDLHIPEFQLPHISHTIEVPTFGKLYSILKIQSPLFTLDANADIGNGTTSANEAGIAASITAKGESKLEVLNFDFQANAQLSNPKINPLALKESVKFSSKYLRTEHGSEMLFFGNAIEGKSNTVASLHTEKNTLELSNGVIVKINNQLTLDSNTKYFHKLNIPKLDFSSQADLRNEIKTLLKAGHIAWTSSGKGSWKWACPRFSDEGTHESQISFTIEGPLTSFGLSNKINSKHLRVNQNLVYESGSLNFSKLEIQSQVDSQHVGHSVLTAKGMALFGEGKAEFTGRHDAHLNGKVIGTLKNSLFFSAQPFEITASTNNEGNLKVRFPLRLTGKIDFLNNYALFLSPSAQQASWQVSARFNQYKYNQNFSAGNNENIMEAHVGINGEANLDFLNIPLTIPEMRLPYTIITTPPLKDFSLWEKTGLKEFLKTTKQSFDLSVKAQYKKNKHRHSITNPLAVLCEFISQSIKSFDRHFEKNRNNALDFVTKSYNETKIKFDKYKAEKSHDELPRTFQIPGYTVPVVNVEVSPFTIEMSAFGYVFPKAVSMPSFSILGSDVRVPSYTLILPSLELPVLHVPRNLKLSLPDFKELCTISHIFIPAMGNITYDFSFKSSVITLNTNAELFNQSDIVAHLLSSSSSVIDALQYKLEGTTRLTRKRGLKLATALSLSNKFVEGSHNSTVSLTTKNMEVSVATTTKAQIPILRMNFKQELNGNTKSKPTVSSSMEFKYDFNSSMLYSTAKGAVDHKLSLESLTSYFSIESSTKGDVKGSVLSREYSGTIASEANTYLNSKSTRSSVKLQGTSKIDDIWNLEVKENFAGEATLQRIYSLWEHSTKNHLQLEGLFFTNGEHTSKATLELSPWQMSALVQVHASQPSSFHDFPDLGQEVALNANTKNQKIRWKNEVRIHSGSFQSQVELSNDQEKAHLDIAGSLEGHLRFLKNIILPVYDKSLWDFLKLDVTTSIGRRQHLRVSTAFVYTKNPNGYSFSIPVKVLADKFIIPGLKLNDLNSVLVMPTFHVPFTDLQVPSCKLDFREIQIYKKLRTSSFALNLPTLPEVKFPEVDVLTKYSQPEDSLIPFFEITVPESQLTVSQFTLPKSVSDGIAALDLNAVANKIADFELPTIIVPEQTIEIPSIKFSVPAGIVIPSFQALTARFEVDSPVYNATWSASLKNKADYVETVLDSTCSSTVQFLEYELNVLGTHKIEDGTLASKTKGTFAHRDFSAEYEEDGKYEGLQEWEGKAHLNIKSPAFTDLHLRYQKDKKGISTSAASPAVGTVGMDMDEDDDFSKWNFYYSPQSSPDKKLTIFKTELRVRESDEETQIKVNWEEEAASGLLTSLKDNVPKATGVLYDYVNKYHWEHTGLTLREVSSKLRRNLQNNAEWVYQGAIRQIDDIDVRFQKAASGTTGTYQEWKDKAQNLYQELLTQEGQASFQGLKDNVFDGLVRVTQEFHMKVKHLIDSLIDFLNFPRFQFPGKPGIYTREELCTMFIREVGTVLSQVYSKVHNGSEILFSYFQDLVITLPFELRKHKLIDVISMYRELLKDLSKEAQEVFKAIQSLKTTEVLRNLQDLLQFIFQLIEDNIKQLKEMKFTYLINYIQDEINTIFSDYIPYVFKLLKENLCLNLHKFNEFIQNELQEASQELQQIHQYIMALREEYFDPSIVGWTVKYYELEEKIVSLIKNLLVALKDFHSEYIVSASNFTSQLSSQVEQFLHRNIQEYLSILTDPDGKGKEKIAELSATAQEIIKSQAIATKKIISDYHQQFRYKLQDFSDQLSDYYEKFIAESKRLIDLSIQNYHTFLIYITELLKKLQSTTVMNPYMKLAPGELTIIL
As to the kind of experiment: SPR, LDL immobilized, Fc-tagged ectodomain as analyte; LDLR ectodomain as analyte. An excerpt: To directly examine protein-protein interactions between LDL and ALK1, surface plasmon resonance (SPR) was used with LDL immobilized to the chip and purified fragments of the Fc-tagged ectodomains for LDLR and ALK1 as analytes. […] To test if LDLR and ALK1 compete for binding to LDL, immobilized LDL was pre-bound with ALK1 or LDLR ectodomains, followed by the addition of the other ectodomain. The binding of […] was not altered when the LDL surface was pretreated with ALK1^ecto (FIG. 2C) or if LDL was pretreated with LDLR^ecto (FIG. 2D).

The target in experiment [3] is T1, ALK1-fragment crystallizable region …. As to the kind of experiment: fluorescence polarization (Fp), recombinant ALK1-Fc and fluorescein labelled peptide. From the text: FIG. 8 depicts development of a fluorescence polarization (Fp) assay of ALK1 binding to ApoB100 peptide Site 1. In order to measure binding affinities of ApoB100 to ALK1 and to facilitate screening molecules that block this interaction, a Fp assay was developed using recombinant ALK1-Fc and an HPLC purified fluorescein labelled peptide, -SEQ ID NO: 8 […] with G being an N-terminal linker to fluorescein and the C-terminal L amidated.

The target is the same in experiment [4]. As to the kind of experiment: substitution analysis of the 15mer peptide. An excerpt:
FIG. 7 depicts structure function analysis of Site 1. Site 1 was interrogated as a major N-terminal binding site for ALK1 on ApoB 100.

fluorescein = fluorescein (fluorescent label)

T1 sequence (P37023 22-118): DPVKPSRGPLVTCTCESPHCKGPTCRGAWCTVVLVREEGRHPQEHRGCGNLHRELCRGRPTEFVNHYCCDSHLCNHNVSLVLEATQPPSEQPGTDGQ

B1: ApoB100 Site 5 (peptide)
peptide: HRDFSAEYEED
notes: also called HRDFSAEYEED
For B1, the binding result in experiment [1] is recorded as “binds”.

B2: ApoB100 Site 4 (peptide)
peptide: RKRGLKLAT
For the molecule B2, the binding result in experiment [1] is “binds”.

B3: Fc-tagged ectodomain of LDLR (Fc fusion, not shown: a dimerising Fc or GST)
chain: not shown
notes: extracellular domain; also called LDLR^ecto
As to B3, in experiment [2], binding was put at a Kd of 7 nM.

B4: fluorescein labelled ApoB100 peptide Site 1, GQDDCTGDEDYTYLIL (peptide)
peptide: fluorescein-GQDDCTGDEDYTYLIL-NH2
notes: also called HPLC purified fluorescein labelled peptide
As for B4, the dissociation constant (Kd) in experiment [3] stood at 2450 nM.

B5: ApoB100 Site 1 (peptide)
peptide: QDDCTGDED
notes: also called QDDCTGDED
On to B5, for which the binding result in experiment [1] is given as “binds”.

B6: ApoB100 Site 1 15mer peptide EQIQDDCTGDEDYTY (peptide)
peptide: EQIQDDCTGDEDYTY
Consider B6, for which the binding result in experiment [4] was “binds”.
